These results are taken from article doi:10.1101/2025.08.17.670746, “Post-transcriptional regulation of meiotic transcripts by the RNA binding protein CDM1 is associated with cytoplasmic condensate assemblies” (bioRxiv, 2025).

This series deals with the molecule itself. Briefly: pull-down; equimolar His6-MBP-CDM1-GFP and TEV-cleaved CDM1-GFP mixed in 20 mM HEPES pH 7.4, 150 mM KCl, 1 mM DTT, room temperature, 2 h; precipitated with anti-His antibody and Protein G beads; blot with anti-GFP.

B1: CALLOSE … MICROSPORES1 (CDM1) fused to G3GFP, made in E. coli (His6-MBP-CDM1-GFP and its TEV-cleaved form CDM1-GFP) (natural protein, Arabidopsis thaliana, UniProt Q9C9F5 1-308, looked up)
chain: MENKIAPFSYSGSSAGNSSSGGVVSSSLYSDQLYKSTRNIMQQRQDMVNREALCYTRLHEASLEAEALRLENTELRSMNLRLKNELNSLIRSSIQNRFDHRSPLRMLSNLSIGGNDADEVENQNRTVNRDDVNDKSPTSVMENEDLNRSSLPKSISVRSNGYSKASQGGGGAAAQSGKPRGTVTKPGTCGQVSTTQKVYVRGGGKKEDQEEEIEVEVYNQGMTKTELCNKWQETGTCPYGDHCQFAHGIKELRPVIRHPRYKTEVCRMVLAGDNCPYGHRCHFRHSLSEQEKLVAAGFKPKSSLKLIT
notes: CDM1 (CALLOSE … MICROSPORE1, C3H15), Arabidopsis thaliana, At1G68200; Self-association test with two differently tagged copies: the bait copy kept His6-MBP (His6-MBP-CDM1-GFP); Both copies carry the C-terminal G3GFP, by which they were detected; also called C3H15; His-MBP-CDM1-G3GFP; source: E. coli BL21-Rosetta, purified (His Mag Sepharose Ni beads, dialysed); not shown: His6, N-terminal, kept; …
For B1, the binding result is reported as “binds”.
